Patent US20230227584A1 (published 2023)

T1: human OX40 on the cell surface (activated human T cells; HeLa_hOx40_NFkB_Luc1 reporter cells) (human, UniProt P43489 29-277)
T1 sequence: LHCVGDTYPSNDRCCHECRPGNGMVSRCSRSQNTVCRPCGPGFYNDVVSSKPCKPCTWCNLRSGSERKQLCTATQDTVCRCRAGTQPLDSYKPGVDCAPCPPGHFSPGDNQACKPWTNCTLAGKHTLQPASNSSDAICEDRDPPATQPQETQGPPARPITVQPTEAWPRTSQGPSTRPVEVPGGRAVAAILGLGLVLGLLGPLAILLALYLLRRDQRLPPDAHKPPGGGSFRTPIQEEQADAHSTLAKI


What was measured:
[1] = biological target: T1, human OX40 on the cell surface …; test: cell-based or functional assay
[2] = biological target: T1, human OX40 on the cell surface …; test: cell-based or functional assay; remark: listed apart in the source
[3] = biological target: T2, human fibroblast activation protein (huFAP) on NIH/3T3-huFAP clone 19 cells (human, UniProt Q12884 1-760); test: flow cytometry, NIH/3T3-huFAP clone 19 cells
T2 construct: Mouse NIH/3T3 fibroblasts transfected with vector pETR4921 to express huFAP; also called cell surface FAP
Description: In another experiment, a mixture of 2 × 10⁵ NIH/3T3-huFAP clone 19 cells and HeLa cells in FACS buffer were added to each well of a round-bottom 96-well plates (TPP, Cat. No. 92097) and the binding assay was performed. Cells were first stained 20 min with LIVE/DEAD™ Fixable Aqua Dead Cell Stain (Molecular probes, Cat.No. L34957) in DPBS, followed after one washing step with 200 µL 4° C. […] Afterwards the cells were washed once with 200 µL FACS buffer at 4° C. and resuspended by a short vortex. Cells were further stained with 50 µL/well of 4° C. cold secondary antibody solution containing Phycoerythrin (PE)-conjugated AffiniPure anti-human IgG Fcy-fragment-specific goat IgG F(ab′)2 fragment (Jackson ImmunoResearch, Cat. No. 109-116-098) and incubated for 30 minutes at 4° C. in the dark. Samples were finally resuspended in 100 µL/well FACS-buffer and acquired the same day using with BD Fortessa running FACS Diva software.

[4] = biological target: T1, human OX40 on the cell surface …; test: flow cytometry, activated human PBMC gated on CD4+ T cells
[5] = biological target: T3, FcRn (biotinylated, coupled to streptavidin-sepharose); test: FcRn affinity chromatography; retention compared to protein standards with known affinities
T3 construct: also called neonatal Fc receptor
Description: For coupling, the prepared receptor was added to streptavidin-sepharose (GE Healthcare). The resulting FcRn-sepharose matrix was packed in a column housing. The column was equilibrated with 20 mM 2-(N-morpholine)-ethanesulfonic acid (MES) and 140 mM NaCl, pH 5.5 (eluent A) at a 0.5 ml/min flow rate. 30 µg of antibody samples were diluted at a volume ratio of 1: 1 with eluent A and applied to the FcRn column. The column was washed with 5 column volumes of eluent A followed by elution with a linear gradient from 20 to 100% 20 mM Tris/HCl and 140 mM NaCl, pH 8.8 (eluent B) in 35 column volumes. The analysis was performed with a column oven at 25° C. The elution profile was monitored by continuous measurement of the absorbance at 280 nm. Retention times were compared to protein standards with known affinities.

T3 sequence (P55899 24-297, chain 1 of 2): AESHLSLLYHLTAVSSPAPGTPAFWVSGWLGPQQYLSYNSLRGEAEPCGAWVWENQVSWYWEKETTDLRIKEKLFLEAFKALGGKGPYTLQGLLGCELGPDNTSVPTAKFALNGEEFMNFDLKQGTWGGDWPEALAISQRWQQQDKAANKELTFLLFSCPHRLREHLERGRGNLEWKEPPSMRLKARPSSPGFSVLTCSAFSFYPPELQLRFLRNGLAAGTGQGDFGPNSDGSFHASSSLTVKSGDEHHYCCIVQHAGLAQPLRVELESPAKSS
T3 sequence (P61769 21-119, chain 2 of 2, further chain): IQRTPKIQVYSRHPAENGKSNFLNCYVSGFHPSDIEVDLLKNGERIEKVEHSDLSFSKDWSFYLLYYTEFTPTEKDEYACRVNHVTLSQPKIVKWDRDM

Binder	EC50 of NFκB activation (luciferase), HeLa_hOx40_NFkB_Luc1, w/ hu FAP [1] [nM]	EC50 of NFκB activation (luciferase), HeLa_hOx40_NFkB_Luc1, w/o [1] [nM]	CD25 upregulation on CD4+ T cells, AUC compared to reference compound [%] [2] [%]	EC50 of CD25 upregulation on CD4+ T cells, suboptimal TCR stimulation of human PBMC with NIH/3T3-huFAP cells [2] [nM]	EC50 [3] [nM]	EC50 [4] [nM]	FcRn affinity [5]
P1AD3690 untargeted tetravalent OX40 (49B4) antigen binding molecule (4+0) (antibody, V domains shown) VH: QVQLVQSGAEVKKPGSSVKVSCKASGGTFSSYAISWVRQAPGQGLEWMGGIIPIFGTANYAQKFQGRVTITADKSTSTAYMELSSLRSEDTAVYYCAREYYRGPYDYWGQGTTVTVSS VL: DIQMTQSPSTLSASVGDRVTITCRASQSISSWLAWYQQKPGKAPKLLIYDASSLESGVPSRFSGSGSGTEFTLTISSLQPDDFATYYCQQYSSQPYTFGQGTKVEIK	0.18	0.23	13	–	–	–	–
P1AE8875 OX40(MOXR0916) x FAP(1G1a) 3+1 (bispecific antibody, human IgG1, kappa, L234A L235A, (2+1)', but its chains are those of a MOXR0916 3+1 molecule ending in EPKSC; Human IgG1 Fc, knob-into-hole, PGLALA; also called MOX0916 3+1; MOXR0916 3+1) heavy 1: not shown heavy 2: EVQLVQSGAEVKKPGASVKVSCKASGYTFTDSYMSWVRQAPGQGLEWIGDMYPDNGDSSYNQKFRERVTITRDTSTSTAYLELSSLRSEDTAVYYCVLAPRWYFSVWGQGTLVTVSSASTKGPSVFPLAPSSKSTSGGTAALGCLVEDYFPEPVTVSWNSGALTSGVHTFPAVLQSSGLYSLSSVVTVPSSSLGTQTYICNVNHKPSNTKVDEKVEPKSCGGGGSGGSGGEVQLVQSGAEVKKPGASVKVSCKASGYTFTDSYMSWVRQAPGQGLEWIGDMYPDNGDSSYNQKFRERVTITRDTSTSTAYLELSSLRSEDTAVYYCVLAPRWYFSVWGQGTLVTVSSASTKGPSVFPLAPSSKSTSGGTAALGCLVEDYFPEPVTVSWNSGALTSGVHTFPAVLQSSGLYSLSSVVTVPSSSLGTQTYICNVNHKPSNTKVDEKVEPKSCDKTHTCPPCPAPEAAGGPSVFLFPPKPKDTLMISRTPEVTCVVVDVSHEDPEVKFNWYVDGVEVHNAKTKPREEQYNSTYRVVSVLTVLHQDWLNGKEYKCKVSNKALGAPIEKTISKAKGQPREPQVCTLPPSRDELTKNQVSLSCAVKGFYPSDIAVEWESNGQPENNYKTTPPVLDSDGSFFLVSKLTVDKSRWQQGNVFSCSVMHEALHNHYTQKSLSLSP light 1: not shown light 2: EIVLTQSPATLSLSPGERATLSCRASESVDNYGLSFINWFQQKPGQAPRLLIYGTSNRGSGIPARFSGSGSGTDFTLTISSLEPEDFAVYFCQQSNEVPYTFGGGTKVEIKSSASTKGPSVFPLAPSSKSTSGGTAALGCLVKDYFPEPVTVSWNSGALTSGVHTFPAVLQSSGLYSLSSVVTVPSSSLGTQTYICNVNHKPSNTKVDKKVEPKSC	0.31	3.94	100	0.02	2.7	0.69	-0.22
P1AE8872 OX40 (MOXR0916) x FAP (1G1a) (2+1) C-terminal crossfab fusion (bispecific antibody, human IgG1, kappa, L234A L235A, 2+1 format; Human IgG1 Fc, knob-into-hole, PGLALA; VL-CH1 chain ends in EPKSC; also called MOX0916 2+1; MOXR0916 2+1) heavy 1: not shown heavy 2: EVQLVQSGAEVKKPGASVKVSCKASGYTFTDSYMSWVRQAPGQGLEWIGDMYPDNGDSSYNQKFRERVTITRDTSTSTAYLELSSLRSEDTAVYYCVLAPRWYFSVWGQGTLVTVSSASTKGPSVFPLAPSSKSTSGGTAALGCLVEDYFPEPVTVSWNSGALTSGVHTFPAVLQSSGLYSLSSVVTVPSSSLGTQTYICNVNHKPSNTKVDEKVEPKSCDKTHTCPPCPAPEAAGGPSVFLFPPKPKDTLMISRTPEVTCVVVDVSHEDPEVKFNWYVDGVEVHNAKTKPREEQYNSTYRVVSVLTVLHQDWLNGKEYKCKVSNKALGAPIEKTISKAKGQPREPQVCTLPPSRDELTKNQVSLSCAVKGFYPSDIAVEWESNGQPENNYKTTPPVLDSDGSFFLVSKLTVDKSRWQQGNVFSCSVMHEALHNHYTQKSLSLSP light 1: not shown light 2: EIVLTQSPATLSLSPGERATLSCRASESVDNYGLSFINWFQQKPGQAPRLLIYGTSNRGSGIPARFSGSGSGTDFTLTISSLEPEDFAVYFCQQSNEVPYTFGGGTKVEIKSSASTKGPSVFPLAPSSKSTSGGTAALGCLVKDYFPEPVTVSWNSGALTSGVHTFPAVLQSSGLYSLSSVVTVPSSSLGTQTYICNVNHKPSNTKVDKKVEPKSC	0.19	–	106	0.01	1.78	0.9	0.15
P1AE8871 OX40 (CLC563) x FAP (1G1a) (2+1) C-terminal crossfab fusion (bispecific antibody, human IgG1, kappa, L234A L235A, 2+1 format; Human IgG1 Fc, knob-into-hole, PGLALA; VL-CH1 chain ends in EPKSC; also called CLC-563 2+1) heavy 1: not shown heavy 2: not shown light 1: not shown light 2: EIVLTQSPATLSLSPGERATLSCRASESVDNYGLSFINWFQQKPGQAPRLLIYGTSNRGSGIPARFSGSGSGTDFTLTISSLEPEDFAVYFCQQSNEVPYTFGGGTKVEIKSSASTKGPSVFPLAPSSKSTSGGTAALGCLVKDYFPEPVTVSWNSGALTSGVHTFPAVLQSSGLYSLSSVVTVPSSSLGTQTYICNVNHKPSNTKVDKKVEPKSC	0.21	–	99	0.06	2.51	3.19	–
P1AE8874 OX40 (CLC563) x FAP (1G1a) (3+1) C-terminal crossfab fusion (bispecific antibody, human IgG1, kappa, L234A L235A, 3+1 format; Human IgG1 Fc, knob-into-hole, PGLALA; VL-CH1 chain ends in EPKSC; also called CLC-563 3+1) heavy 1: not shown heavy 2: not shown light 1: not shown light 2: EIVLTQSPATLSLSPGERATLSCRASESVDNYGLSFINWFQQKPGQAPRLLIYGTSNRGSGIPARFSGSGSGTDFTLTISSLEPEDFAVYFCQQSNEVPYTFGGGTKVEIKSSASTKGPSVFPLAPSSKSTSGGTAALGCLVKDYFPEPVTVSWNSGALTSGVHTFPAVLQSSGLYSLSSVVTVPSSSLGTQTYICNVNHKPSNTKVDKKVEPKSC	0.24	0.79	100	0.04	2.52	3.62	-0.14
